Laboratory results reported in patent EP4163303A1, “SYNTHETIC MULTI-EPITOPE CHIMERA AS A VACCINE AND TREATMENT FOR LEI[…] MAMMALS” (Universidad Complutense De Madrid, priority 2020, dated 2021).

How the values were obtained:
[1] = Immunogenicity in immunised mice: cytokine ELISA in BMDC/splenocyte co-cultures and humoral response; format: in vivo
Experimental: (§1) To assess the immunogenicity of the synthetic multi-epitope chimera characterised by SEQ ID NO: 5, inoculations were performed subcutaneously in three groups of mice (n=8/group). The animals of one group, referred to as Seq5, were inoculated with 50 µg of the synthetic chimera characterised by SEQ ID NO: 5 and 25 µg of saponin, as an adjuvant; the animals of another group, saponin control group, were inoculated with 25 µg of saponin; and the PBS control group was inoculated with PBS (buffer in which both the synthetic multi-epitope chimera characterised by SEQ ID NO: 5 and the adjuvant were transported). The inoculation was carried out on the left rear plantar pad on days 60, 45 and 30, with respect to day zero of infection, with a total volume of 50 µl.
The displacement of the immune response in the group immunised with the chimera characterised by SEQ ID NO: 5 correlates with increased leishmanicidal activity in target cells infected with Leishmania.
Use was made of virgin bone marrow-derived dendritic cells (BMDC) stimulated with soluble Leishmania antigen (SLA; produced with the supernatants obtained after having lysed cultures of Leishmania promastigotes obtained after sonication and subsequent centrifugation), grey bars; or stimulated with the chimera characterised by SEQ ID NO: 5, white bars; unstimulated BMDC was used as negative control, indicated as N-E with black bars. The BMDCs were co-cultured with spleen cells, splenocytes, of the animals previously immunised as indicated in example 3. Cytokine production (pg/ml) was quantified using the ELISA technique. The data are presented as the mean ± standard deviation (SD). The hash marks indicate statistically significant differences (#, P < 0.05; ##, P <0.001) between the immunised groups and the two control groups (Saponin and PBS). The asterisk indicates statistically significant differences (*, P < 0.05; **, P < 0.001).

[2] = tested on: BMDCs infected with L. infantum; test: Leishmanicidal activity in L. infantum infected BMDCs co-cultured with splenocytes of immunised animals; format: cell-based, mice; settings: 24 and 72 hours of postinfection incubation; versus Saponin and PBS control groups
Experimental: as §1
The leishmanicidal activity of the chimera characterised by SEQ ID NO: 5 (indicated in the figure as Seq5) was assessed in BMDC. Virgin BMDCs infected with L. infantum were co-cultured with splenocytes from animals previously immunised with the chimera characterised by SEQ ID NO: 5 as indicated in example 3, and with splenocytes from animals previously inoculated with the two controls used according to example 5. The parameters of infected cells and number of intracellular amastigotes were determined by optical microscopy. The data are presented as the mean ± SD. […]

L. infantum = test: Protection against L. infantum in the murine model of visceral leishmaniasis; format: in vivo, mice; settings: 6 weeks after i.v. infection with 5×10^5 L. infantum promastigotes; versus Saponin and PBS groups
Experimental: as §1
30 days after the last immunisation carried out as described in example 3, an infection was intravenously performed with 5×10^5 infective L. infantum promastigotes in the 3 groups of animals (which we have named Seq5, Saponin and PBS). 6 weeks after infection, the animals were euthanised and the parasite load in the VL target organs was assessed. The parasite count was carried out by decimal dilutions of spleen and liver macerates, separately, and their subsequent observation under a microscope. […]

[3] = splenocytes of immunised mice co-cultured with BMDC stimulated with the chimera or SLA, ELISA, versus Saponin and PBS controls

B1: … RFQSSAIMALQEITRGCVRRMARRGGVK (peptide)
chain: TAVLEYLTAELLELSRSLKAINAQMSMSHRTMKIVNSYVEGLRFQSSAIMALQEITRGCVRRMARRGGVK
modifications: Multi-epitopic chimera consisting of SEQ ID NO: 1, 2, 3 and 4 from Leishmania infantum
In the case of B1, the “specific humoral response against the synthetic multi-epitope chimera (isotype)” value ([1]; mice immunised s.c. with 50 µg chimera and 25 µg saponin) is reported as “redirection of the specific humoral response against the synthetic multi-epitope chimera to the IgG2a isotype”, the immune response profile ([1]; mice immunised s.c. with 50 µg chimera and 25 µg saponin, versus Saponin and PBS controls) is reported as “protective Th1 cell response profile” and the “production of IFN-γ” value [1, 3] is reported as “greater amount”. For the same molecule, the “production of IL-12” value [1, 3] was “greater amount”, the “number of intracellular amastigotes detected per cell (No./BMDC)” value [2] was “lower number” and the “percentage of infected target cells (% BMDC)” value [2] was “notable reduction”. The “parasite load in the liver (H)” value (L. infantum) was “lower parasite load” and the “parasite load in the spleen (B)” value (L. infantum) was “lower parasite load”.
